We go through 1 molecule from patent US20150037340A1 (PEIRRE FABRE MEDICAMENT, published 2015).

Assay [1] has as its target T1, human protein Axl (cellular form on the cell surface) (human, UniProt P30530 26-894).
T1 construct: also called Axl receptor; membrane Axl receptor
T1 sequence: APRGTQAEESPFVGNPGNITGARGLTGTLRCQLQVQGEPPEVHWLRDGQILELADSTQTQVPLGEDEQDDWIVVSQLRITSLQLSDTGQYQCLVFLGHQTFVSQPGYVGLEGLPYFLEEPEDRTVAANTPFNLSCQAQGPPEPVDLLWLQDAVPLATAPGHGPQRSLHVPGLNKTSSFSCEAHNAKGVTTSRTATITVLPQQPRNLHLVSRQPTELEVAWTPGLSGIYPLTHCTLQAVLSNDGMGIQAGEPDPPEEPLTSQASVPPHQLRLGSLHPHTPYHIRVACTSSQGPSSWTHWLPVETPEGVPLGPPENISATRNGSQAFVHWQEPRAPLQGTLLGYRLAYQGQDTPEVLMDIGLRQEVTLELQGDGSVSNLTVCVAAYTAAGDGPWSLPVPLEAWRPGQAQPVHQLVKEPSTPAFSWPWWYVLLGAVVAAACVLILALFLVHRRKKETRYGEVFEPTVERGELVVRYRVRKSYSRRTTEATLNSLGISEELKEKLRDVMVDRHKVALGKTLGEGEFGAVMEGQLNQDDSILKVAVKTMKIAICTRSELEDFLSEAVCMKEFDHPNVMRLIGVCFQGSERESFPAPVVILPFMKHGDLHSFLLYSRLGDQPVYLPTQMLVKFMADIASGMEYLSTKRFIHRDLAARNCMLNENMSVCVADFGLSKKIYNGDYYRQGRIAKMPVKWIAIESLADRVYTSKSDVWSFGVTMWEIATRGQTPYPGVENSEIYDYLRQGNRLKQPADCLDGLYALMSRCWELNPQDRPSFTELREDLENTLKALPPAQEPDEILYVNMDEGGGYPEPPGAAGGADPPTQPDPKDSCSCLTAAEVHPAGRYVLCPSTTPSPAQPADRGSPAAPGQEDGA
In words: flow cytometry on MDA-MB-231 cells, goat anti-mouse Alexa 488. The procedure:
(§1) For cell surface binding studies, two fold serial dilutions of a 10 μg/m (6.66 10⁻⁸ M) primary antibody solution (1613F12, MAB154 antibody or mIgG1 isotype control 9G4 Mab) are prepared and are applied on 2.10⁵ cells for 20 min at 4° C. After 3 washes in phosphate-buffered saline (PBS) supplemented with 1% BSA and 0.01% NaN₃, cells were incubated with secondary antibody Goat anti-mouse Alexa 488 (1/500° dilution) for 20 minutes at 4° C. After 3 additional washes in PBS supplemented with 1% BSA and 0.1% NaN₃, cells were analyzed by FACS (Facscalibur, Becton-Dickinson). At least 5000 cells were assessed to calculate the mean value of fluorescence intensity.
Background: A flow cytometer gives signals particle by particle.

The target in assay [2] is T1, human protein Axl (cellular form on the …). Kind of assay: flow cytometry on SN12C cells, goat anti-mouse Alexa 488. As for the experimental part: as §1
Assay [3] shares this target. Kind of assay: flow cytometry on SN12C cells, anti-mouse IgG Alexa488; table under the graph, unit from the axis Log [M]. The procedure: Cells were detached using trypsin and cell concentration was adjusted at 1×10⁶ cells/ml in FACS buffer. A volume of 100 μL of cell suspension was incubated with increasing concentrations of either isotype controls or anti-Axl antibodies for 20 min. at 4° C. Cells were then washed three times with FACS buffer and incubated for 20 min. more using either anti-mouse IgG Alexa488 secondary antibody or anti-human IgG Alexa488 secondary antibody at 4° C. in the dark. Cells were washed three times with FACS buffer and resuspended with 100 μl of FACS buffer before adding propidium iodide.

In assay [4] the target is T2, recombinant human Axl-Fc (R and D Systems, cat No 154-AL / 154AL/CF) (human, UniProt P30530 26-451).
T2 construct: Bought protein; also called rhAxl-Fc; rh Axl-Fc protein; not shown: human IgG Fc portion (detected with anti-human IgG Fc)
T2 sequence: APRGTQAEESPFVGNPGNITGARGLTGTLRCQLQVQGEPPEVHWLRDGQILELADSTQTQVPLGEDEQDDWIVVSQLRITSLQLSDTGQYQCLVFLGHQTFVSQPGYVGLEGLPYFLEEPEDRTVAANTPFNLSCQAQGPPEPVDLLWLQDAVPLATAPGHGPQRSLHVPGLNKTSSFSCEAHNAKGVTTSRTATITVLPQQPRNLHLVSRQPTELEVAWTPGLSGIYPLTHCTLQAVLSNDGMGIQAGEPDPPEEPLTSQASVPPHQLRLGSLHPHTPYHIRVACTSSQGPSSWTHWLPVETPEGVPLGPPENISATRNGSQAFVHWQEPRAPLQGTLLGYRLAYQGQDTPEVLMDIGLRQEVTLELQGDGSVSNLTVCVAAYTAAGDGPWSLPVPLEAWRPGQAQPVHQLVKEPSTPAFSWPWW
In words: sandwich ELISA: plate coated with the antibody, rhAxl-Fc titrated (the axis on the sheet reads 'Ab concentration'), detection with a biotinylated anti-Axl antibody and avidin-HRP. The procedure: First ELISA experiments were realized. In the assay, 96 well plates (Immulon II, Thermo Fisher) were coated with a 5 μg/m of the 1613F12 solution in 1×PBS, overnight at 4° C. […] For the revelation step, a biotinylated-Axl antibody (in house product) was added at 0.85 μg/m for 1 hour at 37° C. This Axl antibody belongs to a distinct epitopic group. Then an avidin-horseradish peroxidase solution at 1/2000° in diluent buffer is added to the wells. Then the TMB substrate solution is added for 5 min. After addition of the peroxydase stop solution, the absorbance at […] was measured with a microplate reader.
For orientation: ELISA stands for enzyme-linked immunosorbent assay.

B1: 1613F12 antibody (murine form) (antibody, V domains shown)
VH: EVHLQQSGAELVKPGASVKLSCTASGFNIRDTYIHWVKQRPEQGLEWIGRLDPANGHTKYGPNFQGRATMTSDTSSNTAYLQLSSLTSEDTAVYYCARGAYYYGSSGLFYFDYWGQGTTLSVSS
VL: DVQITQSPSYLATSPGETITINCRASKSISKYLAWYQEKPGKTNKLLIYSGSTLQSGVPSRFSGSGSGTDFTLTISSLEPEDFAMYFCQQHHEYPLTFGAGTELELK
notes: Whole murine monoclonal antibody purified from a hybridoma; a murine IgG1 (9G4) serves as its isotype control; also called m1613F12; monoclonal antibody 1613F12 derived from the hybridoma I-4505
As for B1, the figures for the “EC50 (read off the curve)” value in assay [1], in assay [2] and in assay [4] were roughly 1 nM, roughly 1 nM and roughly 0.04 µg/mL, respectively. Further, the EC50 – broadly, the concentration at which the effect is half-maximal – in assay [3] came out at 2.16 nM.
